# Measured values: article PMC6690855
# Target: Caut-bCAstrepC (C-terminal STREPII-tagged β-class carbonic anhydrase of Clostridium autoethanogenum) (Clostridium autoethanogenum)
# Test: AUC; sedimentation velocity, 50,000 rpm, 2-fold protein dilution series starting at 0.7 mg/ml, absorbance at 280 nm and interference optics; SEDFIT c(s) and non-interacting discrete species (NIDS) models
substance,measurement,value
Caut-bCAstrepC (C-terminal STREPII-tagged β-class carbonic anhydrase of Clostridium autoethanogenum) (enzyme),stoichiometry N,2
